Assay results taken from patent US20230039401A1, “COMPOSITIONS AND METHODS FOR TREATING NRP2-ASSOCIATED DISEASES” (aTyr Pharma, Inc., priority 2018, published 2023).
Ends that are not written are not given here.

Columns and labels:
NRP2 = molecular target: T1, NRP2 (Homo sapiens, UniProt O60462); assay: SPR protein-protein interaction, human NRP2 over immobilized protein; format: binding; conditions: NRP2 flowed as analyte (50 nM or 20 nM); running buffer with 5 mM CaCl2
T1 construct: Fc (C); purchased R&D Systems 2215-N2
T1 sequence (O60462 21-931): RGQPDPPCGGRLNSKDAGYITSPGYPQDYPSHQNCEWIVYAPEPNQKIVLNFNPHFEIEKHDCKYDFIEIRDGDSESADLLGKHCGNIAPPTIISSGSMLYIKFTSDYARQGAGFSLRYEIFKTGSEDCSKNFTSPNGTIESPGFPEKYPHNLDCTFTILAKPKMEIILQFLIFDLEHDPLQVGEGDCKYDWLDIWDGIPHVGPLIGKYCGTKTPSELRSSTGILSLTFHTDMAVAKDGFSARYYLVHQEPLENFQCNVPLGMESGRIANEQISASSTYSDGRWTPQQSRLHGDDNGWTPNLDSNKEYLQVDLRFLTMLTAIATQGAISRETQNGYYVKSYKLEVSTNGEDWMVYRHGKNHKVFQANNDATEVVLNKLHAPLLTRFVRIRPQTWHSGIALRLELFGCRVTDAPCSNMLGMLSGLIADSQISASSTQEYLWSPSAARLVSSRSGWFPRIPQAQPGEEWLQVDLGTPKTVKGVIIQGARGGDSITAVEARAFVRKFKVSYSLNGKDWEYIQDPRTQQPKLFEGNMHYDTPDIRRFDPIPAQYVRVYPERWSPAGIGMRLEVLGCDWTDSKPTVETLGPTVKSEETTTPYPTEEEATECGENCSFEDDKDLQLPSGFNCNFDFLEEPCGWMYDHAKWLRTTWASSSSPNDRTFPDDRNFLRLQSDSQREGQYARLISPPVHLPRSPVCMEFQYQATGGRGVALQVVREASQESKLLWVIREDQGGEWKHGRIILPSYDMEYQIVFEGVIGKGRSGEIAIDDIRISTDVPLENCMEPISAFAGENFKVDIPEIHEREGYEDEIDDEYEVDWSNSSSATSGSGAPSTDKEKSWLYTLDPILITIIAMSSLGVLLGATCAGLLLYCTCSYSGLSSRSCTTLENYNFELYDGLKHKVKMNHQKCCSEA
Description: Protein-Protein Interaction studies. […] SPR experiments were conducted on a Bio-Rad ProteOn XPR36 Protein Interaction Array instrument. Proteins were immobilized on different channels of ProteOn GLC sensor chips through amine coupling. Analyte proteins were flowed over the immobilized proteins. The sensor chip surface was regenerated between each analyte run to remove interacting proteins. Data was double referenced against an interspot (untreated chip surface) and a blank surface (activated and deactivated for amine coupling).
Studies were performed to confirm the binding specificity of Neuropilin 2 (NRP2) to Fc-HRS(2-60) using orthologous methods to those used in the large scale Retrogenix screening (Example 1). In a series of experiments, Fc-HRS(2-60) and related proteins were immobilized on SPR chips, and NRP2 and related proteins were flowed as analytes. Upon confirmation of the NRP2:Fc-HRS(2-60) interaction, the dependence on divalent cations was tested as NRP2 is known to have Ca^2+ binding sites. The effects of previously characterized NRP2 ligands on the NRP2: Fc-HRS(2-60) interaction was also tested to determine if these known ligands have competitive effects on the Fc-HRS(2-60) interaction.

[1] = system: murine model of sclerodermatous chronic graft vs. host disease (scl cGvHD); assay: Murine model of sclerodermatous chronic graft vs. host disease; format: in vivo, mouse; conditions: Fc-HRS(2-60) 0.4 mg/kg weekly IV, nintedanib daily oral, termination 8 weeks
Description: This study was designed to investigate the in vivo potential of test compounds in a murine model of sclerodermatous chronic graft vs. host disease (scl cGvHD). A H-2^d minor histocompatibility antigen-mismatched model was employed. The model was prepared by allogenic transplantation of bone marrow cells and splenocytes of male donor B10.D2 mice into 8 week old female Balb/c mice which had been subject to whole body irradiation with 700 cGy 6 hours prior to transplantation.
Treatment Regimen. Fifty-six (56) Balb/c mice, (Janvier, Le Genest St. Isle, France, female, 8 weeks) were used as recipients in this study while B10.D2 mice (Jackson Laboratory, Bar Harbor, Me., USA, male) were euthanized to provide donor cells for allogenic transplantation. The animals were assigned to study groups of 8 mice, and housed in specific pathogen-free conditions with sterile food and water. In brief, animals received weekly intravenous injections of the Vehicle of Fc-HRS(2-60) (20 mM Histidine/125 mM NaCl/10 mM Methionine/3% Sucrose/0.02% PS20, pH 6.9) beginning on Day 7 post transplantation (groups 2 and 3) or Fc-HRS(2-60) (0.4 mg/kg) beginning on Day 7 (group 4) or Day 21 (group 6) post-transplantation. […] Tissues were examined histologically using common staining techniques and tissue homogenates were analyzed for hydroxyproline content as an index of collagen content. […]

Row | binding of human NRP2 to immobilized protein (SPR) (NRP2) | Molecule | measures of fibrosis in skin and lung ([1]; intervention beginning 7 days post-transplantation) | fibrotic endpoints in skin and lung ([1]; intervention beginning 21 days post-transplantation)
1 | does not bind | MARS Fc-WHEP: Fc domain fused to the WHEP domain of MARS (QIQALMDEVTKQGNIVRELKAQKADKNEVAAEVAKLLDLKKQLAVAEGKPPEAPKGK; not fully specified (N-terminus); also: fused to dimerising Fc domain (not included)) |  | 
2 | does not bind | WARS WHEP: WHEP domain of WARS with a V5/His tag (SLLELFNSIATQGELVRSLKAGNASKDEIDSAVKMLVSLKMSYKAAAGEDYKADCPP; also: V5/His tag (not included)) |  | 
3 |  | COC(=O)c1ccc2c(c1)NC(=O)/C2=C(\Nc1ccc(N(C)C(=O)CN2CCN(C)CC2)cc1)c1ccccc1 [nintedanib] | significantly ameliorated all measures of fibrosis | significantly improved most endpoints measured
4 | does not bind | GARS Fc-WHEP: Fc domain fused to the WHEP domain of GARS (VLAPLRLAVRQQGDLVRKLKEDKAPQVDVDKAVAELKARKRVLEAKELALQPKDDIV; not fully specified (N-terminus); also: fused to dimerising Fc domain (not included)) |  | 
